According to patent US20250109190A1 (BYOMASS, published 2025):

Legend:
Experiment in all cases: BLI Octet; IgG, avid
Activin B = target: T1, Activin B (UniProt P09529 293-407)
T1 sequence (looked up): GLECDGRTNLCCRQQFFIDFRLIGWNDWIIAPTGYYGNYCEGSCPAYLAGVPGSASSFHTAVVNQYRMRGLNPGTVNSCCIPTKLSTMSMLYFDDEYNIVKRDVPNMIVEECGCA

BMP9 = target: T2, BMP9 (UniProt Q9UK05 320-429)
T2 sequence (looked up): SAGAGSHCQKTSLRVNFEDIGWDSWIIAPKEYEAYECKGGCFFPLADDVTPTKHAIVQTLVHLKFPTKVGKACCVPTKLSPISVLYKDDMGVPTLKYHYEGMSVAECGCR

BMP10 = target: T3, BMP10 (UniProt O95393 317-424)
T3 sequence (looked up): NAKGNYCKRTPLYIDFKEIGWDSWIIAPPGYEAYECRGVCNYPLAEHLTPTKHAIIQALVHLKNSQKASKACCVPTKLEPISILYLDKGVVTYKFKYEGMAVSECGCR

GDF15 Fc = target: T4, GDF15 Fc (UniProt Q99988 197-308, limits assumed)
T4 construct: species not given; not shown: Fc part of the fusion
T4 sequence (looked up): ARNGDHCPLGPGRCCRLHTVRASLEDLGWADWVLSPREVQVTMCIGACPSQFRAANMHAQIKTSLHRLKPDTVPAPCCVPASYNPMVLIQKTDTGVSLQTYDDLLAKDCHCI

human GDNF = target: T5, human GDNF (human, UniProt P39905 78-211, limits assumed)
T5 sequence (looked up): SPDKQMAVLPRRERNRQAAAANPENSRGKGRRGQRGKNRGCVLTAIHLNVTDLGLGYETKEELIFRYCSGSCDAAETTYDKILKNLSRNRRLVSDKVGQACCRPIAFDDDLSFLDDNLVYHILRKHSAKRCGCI

human GDF8 = human GDF8 (human, UniProt O14793 267-375)
human GDF10 = target: T6, human GDF10 (human, UniProt P55107 369-478)
T6 sequence (looked up): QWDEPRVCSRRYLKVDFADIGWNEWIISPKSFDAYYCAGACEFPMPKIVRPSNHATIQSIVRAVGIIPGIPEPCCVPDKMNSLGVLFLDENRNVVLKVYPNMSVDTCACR

human GDF11 = human GDF11 (human, UniProt O95390 299-407)

Measured: binding result

Sequence of human GDF11 (O95390 299-407 limits assumed): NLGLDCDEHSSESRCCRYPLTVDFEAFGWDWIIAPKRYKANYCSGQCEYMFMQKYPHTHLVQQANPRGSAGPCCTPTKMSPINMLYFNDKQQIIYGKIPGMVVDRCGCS

B1: Antibody A (Clone A), IgG (antibody, V domains shown)
VH: QVQLVQSGAEVKKPGASVKVSCKASGYTFTGYYMHWVRQAPGQGLEWMGSINPSSGGTNYAQKFQGRVTMTTDTSTSTAYMELRSLRSDDTAVYYCARARDIAAAGLGAFDYWGQGTLVTVSS
VL: EIVLTQSPGTLSLSPGERATLSCRASQSVRSSYLAWYQQKPGQAPRLLIYGASSRATGIPDRFSGSGSGTDFTLTISRLEPEDFAVYYCQQYVSYPRTFGGGTKVEIKR
notes: IgG
no binding (tested: 100 nM): all assays above

B2: Antibody G (Clone G), IgG (antibody, V domains shown)
VH: QVQLVQSGAEVKKPGASVKVSCKASGYTFTSYYIHWVRQAPGQGLEWMGAIYAYSGDTNYAQKLQGRVTMTTDTSTSTAYMELRSLRSDDTAVYYCARARDIAAAGLGAFDYWGQGTLVTVSS
VL: EIVLTQSPGTLSLSPGERATLSCRASQSVRSSYLAWYQQKPGQAPRLLIYGASSRATGIPDRFSGSGSGTDFTLTISRLEPEDFAVYYCQQYSNYPRTFGGGTKVEIKR
notes: IgG
no binding (tested: 100 nM): all assays above

B3: Antibody O (Clone O), IgG (antibody, V domains shown)
VH: QVQLVQSGAEVKKPGSSVKVSCKASGGTFSNYDINWVRQAPGQGLEWMGGIIPVFGTAAYAQKFQGRVTITADESTSTAYMELSSLRSEDTAVYYCAREARDGYRYAFQHWGQGTLVTVSS
VL: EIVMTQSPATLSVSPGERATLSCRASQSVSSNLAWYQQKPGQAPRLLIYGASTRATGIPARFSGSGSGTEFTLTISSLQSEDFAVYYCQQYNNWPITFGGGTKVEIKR
notes: IgG
no binding (tested: 100 nM): all assays above

B4: Antibody Q (Clone Q), IgG (antibody, V domains shown)
VH: QVQLVQSGAEVKKPGSSVKVSCKASGGSFSPYTWSWVRQAPGQGLEWMGGIIPISGTANTAQKFQGRVTITADESTSTAYMELSSLRSEDTAVYYCARGGPLSGWRASYYYWGQGTLVTVSS
VL: not shown
notes: IgG
no binding (tested: 100 nM): all assays above

B5: Antibody R (Clone R), IgG (antibody, V domains shown)
VH: QVQLVQSGAEVKKPGSSVKVSCKASGGSFSPYTISWVRQAPGQGLEWMGGIILTSGTANYAQKFQGRVTITADESTSTAYMELSSLRSEDTAVYYCARGGPLSGWRASYYYWGQGTLVTVSS
VL: not shown
notes: IgG
no binding (tested: 100 nM): all assays above

B6: Antibody I (Clone I), IgG (antibody, V domains shown)
VH: QVQLVQSGAEVKKPGSSVKVSCKASGGTFSNYAISWVRQAPGQGLEWMGYIIPFFGTANYAQKFQGRVTITADESTSTAYMELSSLRSEDTAVYYCARGGSGYSTSWGSSLYWGQGTLVTVSS
VL: EIVLTQSPGTLSLSPGERATLSCRASQSVSSSYLAWYQQKPGQAPRLLIYGASYRATGIPDRFSGSGSGTDFTLTISRLEPEDFAVYYCLQSGVFPYTFGGGTKVEIKR
notes: IgG
no binding (tested: 100 nM): all assays above

B7: Antibody K (Clone K), IgG (antibody, V domains shown)
VH: QVQLVQSGAEVKKPGSSVKVSCKASGGTSSSYAISWVRQAPGQGLEWMGYIIPAFGTANYAQKFQGRVTITADESTSTAYMELSSLRSEDTAVYYCARPVRTYPLGKYFYHWGQGTLVTVSS
VL: EIVLTQSPATLSLSPGERATLSCRASQSVSSYLAWYQQKPGQAPRLLIYDASNRATGIPARFSGSGSGTDFTLTISSLEPEDFAVYYCQQDSIFPPYTFGGGTKVEIKR
notes: IgG
no binding (tested: 100 nM): all assays above
